Measurements reported in patent publication US7964598B2 (The J. David Gladstone Institutes, priority 1995, dated 2011).

System: apoE4-expressing Neuro-2a cells
Experiment: Neurite outgrowth, apoE4-expressing Neuro-2a cells
Type: cell-based, mouse
Settings: in the presence of β-VLDL
Method: Cells were grown in DME/F12 containing 10% FBS and G418 (400 μg/ml). On the day the experiment was initiated, the cells were subcultured into 35 mm plates in DME/F12 with 10% FBS. The cells were allowed to adhere to the plastic plates for 2 hr at 37° C., and then the culture medium was changed to N2 medium with or without increasing concentrations of lipoproteins. After 48 hr at 37° C., the media were replaced with the same medium (with or without lipoproteins), and the incubation was continued for an additional 48 hr. […] Neurons were imaged in fluorescence mode with a confocal laser scanning system (MRC-600, BioRad, Hercules, Calif.), and the images were digitized with an Image-1/AT image analysis system (Universal Images, West Chester, Pa.). The neuronal images were coded before characterization, and the following variables were measured: 1) number of neurites (defined as cell surface projections at least one-half the cell diameter) on each neuron; 2) neurite branching (the number of branch points on each neurite); and 3) neurite extension (the length of the longest neurite, measured from the cell body). Typically, in each experiment the neurites of 20 to 40 neurons per plate were measured and the results preserved as the mean±S.E.M. […]

B1: lactoferrin: blocks binding of lipoproteins to both HSPG and LRP (protein, UniProt P02788 20-710, looked up)
Lactotransferrin: GRRRSVQWCAVSQPEATKCFQWQRNMRKVRGPPVSCIKRDSPIQCIQAIAENRADAVTLDGGFIYEAGLAPYKLRPVAAEVYGTERQPRTHYYAVAVVKKGGSFQLNELQGLKSCHTGLRRTAGWNVPIGTLRPFLNWTGPPEPIEAAVARFFSASCVPGADKGQFPNLCRLCAGTGENKCAFSSQEPYFSYSGAFKCLRDGAGDVAFIRESTVFEDLSDEAERDEYELLCPDNTRKPVDKFKDCHLARVPSHAVVARSVNGKEDAIWNLLRQAQEKFGKDKSPKFQLFGSPSGQKDLLFKDSAIGFSRVPPRIDSGLYLGSGYFTAIQNLRKSEEEVAARRARVVWCAVGEQELRKCNQWSGLSEGSVTCSSASTTEDCIALVLKGEADAMSLDGGYVYTAGKCGLVPVLAENYKSQQSSDPDPNCVDRPVEGYLAVAVVRRSDTSLTWNSVKGKKSCHTAVDRTAGWNIPMGLLFNQTGSCKFDEYFSQSCAPGSDPRSNLCALCIGDEQGENKCVPNSNERYYGYTGAFRCLAENAGDVAFVKDVTVLQNTDGNNNEAWAKDLKLADFALLCLDGKRKPVTEARSCHLAMAPNHAVVSRMDKVERLKQVLLHQQAKFGRNGSDCPDKFCLFQSETKNLLFNDNTECLARLHGKTTYEKYLGPQYVAGITNLKKCSTSPLLEACEFLRK
- inhibition of neurite extension seen in the apoE4-expressing cells: blocked the effects of apoE3 and apoE4 on neurite outgrowth
